This is an account of results in article PMC5017906.

The target in this assay is nAChRs on CA1 hippocampal interneurons (not stated (rat brain slices in the text, NMRI mice in the methods)).

B1: Recombinant human GST-tagged Lypd6 (LY6/PLAUR domain-containing 6), Q86Y78 23-147 (natural protein)
chain: AQSRDFTVKDIIYLHPSTTPYPGGFKCFTCEKAADNYECNRWAPDIYCPRETRYCYTQHTMEVTGNSISVTKRCVPLEECLSTGCRDSEHEGHKVCTSCCEGNICNLPLPRNETDATFATTSPIN
For B1, the attenuation of inward currents induced by the non-specific nAChR agonist DMPP (50 μM) in CA1 hippocampal interneurons in the presence of 6 μM Lypd6, whole-cell patch clamp was 74.8% and the average reduction of inward currents induced by nicotine (100 μM) in CA1 hippocampal interneurons in the presence of 6 μM Lypd6, whole-cell patch clamp at −60 mV was 57.4%.
